We go through 19 molecules from US20230365662A1.

“And” between values parts separate entries of the source, which are not always exact repeats. Identical values can stand only once.

B1: KB001 mouse Fab VL S53L (Fab, V domains shown)
VH: EVQLKQSGPGLVAPSQSLSITCTVSGFSLSIYSVHWVRQPPGKGLEWLGMIWGGGSSDYNSALKSRLSISKDNSKSQVFLKMNSLQTDDTAMYYCARNGNFYAMDYWGQGTSVTVSS
VL: QIVLTQSPAIMSASLGERVTMTCTASSSVSSSFLHWYQQKPGSSPQLWIYSTLNLASGVPARFSGSGSGTSYSLTISSMEAEDAATYYCHQYHHSPYIYTFGGGTKLEIK
B2: KB001 mouse Fab VL N54K (Fab, V domains shown)
VH: EVQLKQSGPGLVAPSQSLSITCTVSGFSLSIYSVHWVRQPPGKGLEWLGMIWGGGSSDYNSALKSRLSISKDNSKSQVFLKMNSLQTDDTAMYYCARNGNFYAMDYWGQGTSVTVSS
VL: QIVLTQSPAIMSASLGERVTMTCTASSSVSSSFLHWYQQKPGSSPQLWIYSTSKLASGVPARFSGSGSGTSYSLTISSMEAEDAATYYCHQYHHSPYIYTFGGGTKLEIK
B3: KB001 mouse Fab VL N54W (Fab, V domains shown)
VH: EVQLKQSGPGLVAPSQSLSITCTVSGFSLSIYSVHWVRQPPGKGLEWLGMIWGGGSSDYNSALKSRLSISKDNSKSQVFLKMNSLQTDDTAMYYCARNGNFYAMDYWGQGTSVTVSS
VL: QIVLTQSPAIMSASLGERVTMTCTASSSVSSSFLHWYQQKPGSSPQLWIYSTSWLASGVPARFSGSGSGTSYSLTISSMEAEDAATYYCHQYHHSPYIYTFGGGTKLEIK
B4: KB001 mouse Fab VL L55K (Fab, V domains shown)
VH: EVQLKQSGPGLVAPSQSLSITCTVSGFSLSIYSVHWVRQPPGKGLEWLGMIWGGGSSDYNSALKSRLSISKDNSKSQVFLKMNSLQTDDTAMYYCARNGNFYAMDYWGQGTSVTVSS
VL: QIVLTQSPAIMSASLGERVTMTCTASSSVSSSFLHWYQQKPGSSPQLWIYSTSNKASGVPARFSGSGSGTSYSLTISSMEAEDAATYYCHQYHHSPYIYTFGGGTKLEIK
B5: KB001 mouse Fab VL T100K (Fab, V domains shown)
VH: EVQLKQSGPGLVAPSQSLSITCTVSGFSLSIYSVHWVRQPPGKGLEWLGMIWGGGSSDYNSALKSRLSISKDNSKSQVFLKMNSLQTDDTAMYYCARNGNFYAMDYWGQGTSVTVSS
VL: QIVLTQSPAIMSASLGERVTMTCTASSSVSSSFLHWYQQKPGSSPQLWIYSTSNLASGVPARFSGSGSGTSYSLTISSMEAEDAATYYCHQYHHSPYIYKFGGGTKLEIK
B6: KB001 mouse Fab VL L55Q (Fab, V domains shown)
VH: EVQLKQSGPGLVAPSQSLSITCTVSGFSLSIYSVHWVRQPPGKGLEWLGMIWGGGSSDYNSALKSRLSISKDNSKSQVFLKMNSLQTDDTAMYYCARNGNFYAMDYWGQGTSVTVSS
VL: QIVLTQSPAIMSASLGERVTMTCTASSSVSSSFLHWYQQKPGSSPQLWIYSTSNQASGVPARFSGSGSGTSYSLTISSMEAEDAATYYCHQYHHSPYIYTFGGGTKLEIK
B7: KB001 mouse Fab VL N54A (Fab, V domains shown)
VH: EVQLKQSGPGLVAPSQSLSITCTVSGFSLSIYSVHWVRQPPGKGLEWLGMIWGGGSSDYNSALKSRLSISKDNSKSQVFLKMNSLQTDDTAMYYCARNGNFYAMDYWGQGTSVTVSS
VL: QIVLTQSPAIMSASLGERVTMTCTASSSVSSSFLHWYQQKPGSSPQLWIYSTSALASGVPARFSGSGSGTSYSLTISSMEAEDAATYYCHQYHHSPYIYTFGGGTKLEIK
B8: KB001 mouse Fab VL N54D (Fab, V domains shown)
VH: EVQLKQSGPGLVAPSQSLSITCTVSGFSLSIYSVHWVRQPPGKGLEWLGMIWGGGSSDYNSALKSRLSISKDNSKSQVFLKMNSLQTDDTAMYYCARNGNFYAMDYWGQGTSVTVSS
VL: QIVLTQSPAIMSASLGERVTMTCTASSSVSSSFLHWYQQKPGSSPQLWIYSTSDLASGVPARFSGSGSGTSYSLTISSMEAEDAATYYCHQYHHSPYIYTFGGGTKLEIK
B9: KB001 mouse Fab VL N54L (Fab, V domains shown)
VH: EVQLKQSGPGLVAPSQSLSITCTVSGFSLSIYSVHWVRQPPGKGLEWLGMIWGGGSSDYNSALKSRLSISKDNSKSQVFLKMNSLQTDDTAMYYCARNGNFYAMDYWGQGTSVTVSS
VL: QIVLTQSPAIMSASLGERVTMTCTASSSVSSSFLHWYQQKPGSSPQLWIYSTSLLASGVPARFSGSGSGTSYSLTISSMEAEDAATYYCHQYHHSPYIYTFGGGTKLEIK
B10: KB001 mouse Fab VL L55S (Fab, V domains shown)
VH: EVQLKQSGPGLVAPSQSLSITCTVSGFSLSIYSVHWVRQPPGKGLEWLGMIWGGGSSDYNSALKSRLSISKDNSKSQVFLKMNSLQTDDTAMYYCARNGNFYAMDYWGQGTSVTVSS
VL: QIVLTQSPAIMSASLGERVTMTCTASSSVSSSFLHWYQQKPGSSPQLWIYSTSNSASGVPARFSGSGSGTSYSLTISSMEAEDAATYYCHQYHHSPYIYTFGGGTKLEIK
B11: KB001 mouse Fab VL S53E (Fab, V domains shown)
VH: EVQLKQSGPGLVAPSQSLSITCTVSGFSLSIYSVHWVRQPPGKGLEWLGMIWGGGSSDYNSALKSRLSISKDNSKSQVFLKMNSLQTDDTAMYYCARNGNFYAMDYWGQGTSVTVSS
VL: QIVLTQSPAIMSASLGERVTMTCTASSSVSSSFLHWYQQKPGSSPQLWIYSTENLASGVPARFSGSGSGTSYSLTISSMEAEDAATYYCHQYHHSPYIYTFGGGTKLEIK
B12: KB001 mouse Fab VL N54E (Fab, V domains shown)
VH: EVQLKQSGPGLVAPSQSLSITCTVSGFSLSIYSVHWVRQPPGKGLEWLGMIWGGGSSDYNSALKSRLSISKDNSKSQVFLKMNSLQTDDTAMYYCARNGNFYAMDYWGQGTSVTVSS
VL: QIVLTQSPAIMSASLGERVTMTCTASSSVSSSFLHWYQQKPGSSPQLWIYSTSELASGVPARFSGSGSGTSYSLTISSMEAEDAATYYCHQYHHSPYIYTFGGGTKLEIK
B13: KB001 mouse Fab VL S53Y (Fab, V domains shown)
VH: EVQLKQSGPGLVAPSQSLSITCTVSGFSLSIYSVHWVRQPPGKGLEWLGMIWGGGSSDYNSALKSRLSISKDNSKSQVFLKMNSLQTDDTAMYYCARNGNFYAMDYWGQGTSVTVSS
VL: QIVLTQSPAIMSASLGERVTMTCTASSSVSSSFLHWYQQKPGSSPQLWIYSTYNLASGVPARFSGSGSGTSYSLTISSMEAEDAATYYCHQYHHSPYIYTFGGGTKLEIK
B14: KB001 mouse Fab VL N54F (Fab, V domains shown)
VH: EVQLKQSGPGLVAPSQSLSITCTVSGFSLSIYSVHWVRQPPGKGLEWLGMIWGGGSSDYNSALKSRLSISKDNSKSQVFLKMNSLQTDDTAMYYCARNGNFYAMDYWGQGTSVTVSS
VL: QIVLTQSPAIMSASLGERVTMTCTASSSVSSSFLHWYQQKPGSSPQLWIYSTSFLASGVPARFSGSGSGTSYSLTISSMEAEDAATYYCHQYHHSPYIYTFGGGTKLEIK
B15: KB001 mouse Fab VL L55H (Fab, V domains shown)
VH: EVQLKQSGPGLVAPSQSLSITCTVSGFSLSIYSVHWVRQPPGKGLEWLGMIWGGGSSDYNSALKSRLSISKDNSKSQVFLKMNSLQTDDTAMYYCARNGNFYAMDYWGQGTSVTVSS
VL: QIVLTQSPAIMSASLGERVTMTCTASSSVSSSFLHWYQQKPGSSPQLWIYSTSNHASGVPARFSGSGSGTSYSLTISSMEAEDAATYYCHQYHHSPYIYTFGGGTKLEIK
B16: KB001 mouse Fab VL L55V (Fab, V domains shown)
VH: EVQLKQSGPGLVAPSQSLSITCTVSGFSLSIYSVHWVRQPPGKGLEWLGMIWGGGSSDYNSALKSRLSISKDNSKSQVFLKMNSLQTDDTAMYYCARNGNFYAMDYWGQGTSVTVSS
VL: QIVLTQSPAIMSASLGERVTMTCTASSSVSSSFLHWYQQKPGSSPQLWIYSTSNVASGVPARFSGSGSGTSYSLTISSMEAEDAATYYCHQYHHSPYIYTFGGGTKLEIK
B17: KB001 mouse Fab VL L55T (Fab, V domains shown)
VH: EVQLKQSGPGLVAPSQSLSITCTVSGFSLSIYSVHWVRQPPGKGLEWLGMIWGGGSSDYNSALKSRLSISKDNSKSQVFLKMNSLQTDDTAMYYCARNGNFYAMDYWGQGTSVTVSS
VL: QIVLTQSPAIMSASLGERVTMTCTASSSVSSSFLHWYQQKPGSSPQLWIYSTSNTASGVPARFSGSGSGTSYSLTISSMEAEDAATYYCHQYHHSPYIYTFGGGTKLEIK
B18: KB001 mouse Fab VL S53V (Fab, V domains shown)
VH: EVQLKQSGPGLVAPSQSLSITCTVSGFSLSIYSVHWVRQPPGKGLEWLGMIWGGGSSDYNSALKSRLSISKDNSKSQVFLKMNSLQTDDTAMYYCARNGNFYAMDYWGQGTSVTVSS
VL: QIVLTQSPAIMSASLGERVTMTCTASSSVSSSFLHWYQQKPGSSPQLWIYSTVNLASGVPARFSGSGSGTSYSLTISSMEAEDAATYYCHQYHHSPYIYTFGGGTKLEIK
B19: KB001 mouse Fab VL N54I (Fab, V domains shown)
VH: EVQLKQSGPGLVAPSQSLSITCTVSGFSLSIYSVHWVRQPPGKGLEWLGMIWGGGSSDYNSALKSRLSISKDNSKSQVFLKMNSLQTDDTAMYYCARNGNFYAMDYWGQGTSVTVSS
VL: QIVLTQSPAIMSASLGERVTMTCTASSSVSSSFLHWYQQKPGSSPQLWIYSTSILASGVPARFSGSGSGTSYSLTISSMEAEDAATYYCHQYHHSPYIYTFGGGTKLEIK

This assay concerns the target HRgpA-6H (Porphyromonas gingivalis) (UniProt P28784). The assay is described as follows: ELISA, FASEBA Fab on coated HRgpA-6H.
UniProt P28784, sequence (P28784 228-991): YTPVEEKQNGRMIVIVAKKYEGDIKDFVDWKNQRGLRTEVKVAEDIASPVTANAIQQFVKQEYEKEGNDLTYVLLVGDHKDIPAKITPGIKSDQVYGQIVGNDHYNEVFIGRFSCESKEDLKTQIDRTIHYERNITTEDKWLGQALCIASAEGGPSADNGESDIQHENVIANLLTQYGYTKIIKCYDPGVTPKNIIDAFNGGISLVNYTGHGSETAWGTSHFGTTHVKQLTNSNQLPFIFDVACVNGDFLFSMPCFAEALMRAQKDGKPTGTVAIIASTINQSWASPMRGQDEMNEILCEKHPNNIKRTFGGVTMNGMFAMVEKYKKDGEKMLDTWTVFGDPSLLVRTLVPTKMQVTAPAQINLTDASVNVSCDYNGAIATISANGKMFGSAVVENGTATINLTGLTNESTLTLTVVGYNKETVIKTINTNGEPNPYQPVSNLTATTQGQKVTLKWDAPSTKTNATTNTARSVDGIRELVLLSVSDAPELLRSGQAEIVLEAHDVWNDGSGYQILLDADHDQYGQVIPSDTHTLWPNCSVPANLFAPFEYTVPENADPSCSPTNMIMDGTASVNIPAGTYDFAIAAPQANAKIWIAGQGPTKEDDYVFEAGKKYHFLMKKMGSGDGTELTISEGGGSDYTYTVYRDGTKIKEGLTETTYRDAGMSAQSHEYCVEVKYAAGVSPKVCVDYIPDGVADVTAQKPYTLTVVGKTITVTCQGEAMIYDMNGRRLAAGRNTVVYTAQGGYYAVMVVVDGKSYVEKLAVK
As for B1, the OD450nm was 0.639 and 0.636; the Ratio OD(Variant)/OD(WT) is 0.811 and 0.808.
As to B2, the OD450nm is 0.727 and the Ratio OD(Variant)/OD(WT) amounted to 0.928.
On to B3, for which the OD450nm stood at 0.646 and the Ratio OD(Variant)/OD(WT) is 0.825.
Take B4: the OD450nm amounted to 0.769 and the Ratio OD(Variant)/OD(WT) is 0.981.
On to B5, for which the OD450nm is 0.625 and the Ratio OD(Variant)/OD(WT) came to 1.19.
On to B6, for which the OD450nm was 0.711 and 0.692 and 0.684; the Ratio OD(Variant)/OD(WT) was 0.907 and 0.883 and 0.873.
Regarding B7, the OD450nm stood at 0.776 and the Ratio OD(Variant)/OD(WT) is 0.99.
Regarding B8, the OD450nm stood at 0.725 and the Ratio OD(Variant)/OD(WT) stood at 0.925.
Consider B9, for which the OD450nm came out at 0.774 and the Ratio OD(Variant)/OD(WT) came out at 0.988.
As to B10, the OD450nm came out at 0.672 and the Ratio OD(Variant)/OD(WT) stood at 0.858.
On the same counts, the results for B11 are 0.766 and 0.973.
Take B12: the OD450nm is 0.744 and 0.74; the Ratio OD(Variant)/OD(WT) was 0.95 and 0.944.
Consider B13, for which the OD450nm is 0.776 and 0.781; the Ratio OD(Variant)/OD(WT) was 0.985 and 0.992.
For the molecule B14, the OD450nm was determined as 0.765 and the Ratio OD(Variant)/OD(WT) came to 0.976.
Regarding B15, the OD450nm is 0.695 and 0.731; the Ratio OD(Variant)/OD(WT) is 0.887 and 0.933.
Consider B16, for which the OD450nm amounted to 0.706 and the Ratio OD(Variant)/OD(WT) stood at 0.901.
B17: the OD450nm was 0.727 and the Ratio OD(Variant)/OD(WT) was determined as 0.928.
For B18, in that order: 0.702 and 0.891.
Take B19: the OD450nm is 0.755 and 0.772 and 0.754; the Ratio OD(Variant)/OD(WT) is 0.964 and 0.985 and 0.962.
